Test results published in the supplement of paper PMC11246515.
± gives the standard deviation of the averaged measurements.

Experiment: total protein half-life in vivo (active degradation + dilution); higher = more stable protein
[1] = E. coli NCM3722 delta-clpP delta-lon delta-hslV, growth: N-lim chemostat, doubling time 6 h
[2] = E. coli NCM3722 delta-clpP, growth: N-lim chemostat, doubling time 6 h
[3] = E. coli NCM3722 delta-hslV, growth: N-lim chemostat, doubling time 6 h
[4] = E. coli NCM3722 delta-lon, growth: N-lim chemostat, doubling time 6 h
[5] = E. coli NCM3722 delta-smpB, growth: N-lim chemostat, doubling time 6 h
[6] = wild type E. coli NCM3722, growth: C-lim chemostat, doubling time 3 h
[7] = wild type E. coli NCM3722, growth: C-lim chemostat, doubling time 6 h
[8] = wild type E. coli NCM3722, growth: C-lim chemostat, doubling time 12 h
[9] = wild type E. coli NCM3722, growth: N-lim chemostat, doubling time 6 h
[10] = wild type E. coli NCM3722, growth: N-lim chemostat, doubling time 12 h
[11] = wild type E. coli NCM3722, growth: P-lim chemostat, doubling time 6 h
[12] = wild type E. coli NCM3722, growth: P-lim chemostat, doubling time 12 h

Sequence	total protein half-life in vivo [1]	total protein half-life in vivo [2]	total protein half-life in vivo [3]	total protein half-life in vivo [4]	total protein half-life in vivo [5]	total protein half-life in vivo [6]	total protein half-life in vivo [7]	total protein half-life in vivo [8]	total protein half-life in vivo [9]	total protein half-life in vivo [10]	total protein half-life in vivo [11]	total protein half-life in vivo [12]
MIDFGNFYSLIAKNHLSHWLETLPAQIANWQREQQHGLFKQWSNAVEFLPEIKPYRLDLLHSVTAESEEPLSAGQIKRIETLMRNLMPWRKGPFSLYGVNIDTEWRSDWKWDRVLPHLSDLTGRTILDVGCGSGYHMWRMIGAGAHLAVGIDPTQLFLCQFEAVRKLLGNDQRAHLLPLGIEQLPALKAFDTVFSMGVLYHRRSPLEHLWQLKDQLVNEGELVLETLVIDGDENTVLVPGDRYAQMRNVYFIPSALALKNWLKKCGFVDIRIADVSVTTTEEQRRTEWMVTESLADFLDPHDPGKTVEGYPAPKRAVLIARKP	5.27 ± 0.08 h	4.888 ± 0.034 h	5.33 ± 0.13 h	5.97 ± 1.3 h	5.36 ± 0.11 h	3.11 ± 0.086 h	5.84 ± 0.0082 h	13.1 ± 3.1 h	5.59 h	11.6 ± 2.1 h	5.89 ± 0.94 h	12.3 ± 0.86 h
MIDKSAFVHPTAIVEEGASIGANAHIGPFCIVGPHVEIGEGTVLKSHVVVNGHTKIGRDNEIYQFASIGEVNQDLKYAGEPTRVEIGDRNRIRESVTIHRGTVQGGGLTKVGSDNLLMINAHIAHDCTVGNRCILANNATLAGHVSVDDFAIIGGMTAVHQFCIIGAHVMVGGCSGVAQDVPPYVIAQGNHATPFGVNIEGLKRRGFSREAITAIRNAYKLIYRSGKTLDEVKPEIAELAETYPEVKAFTDFFARSTRGLIR [P0A722]	5.73 ± 0.15 h	5.26 ± 0.2 h	5.49 ± 0.17 h	5.48 ± 0.32 h	5.59 ± 0.7 h	3.06 ± 0.068 h	5.79 ± 0.17 h	10.9 ± 0.052 h	5.52 ± 0.27 h	10.4 ± 0.94 h	5.95 ± 0.41 h	12.5 ± 0.48 h
MIDLRSDTVTRPSRAMLEAMMAAPVGDDVYGDDPTVNALQDYAAELSGKEAAIFLPTGTQANLVALLSHCERGEEYIVGQAAHNYLFEAGGAAVLGSIQPQPIDAAADGTLPLDKVAMKIKPDDIHFARTKLLSLENTHNGKVLPREYLKEAWEFTRERNLALHVDGARIFNAVVAYGCELKEITQYCDSFTICLSKGLGTPVGSLLVGNRDYIKRAIRWRKMTGGGMRQSGILAAAGIYALKNNVARLQEDHDNAAWMAEQLREAGADVMRQDTNMLFVRVGEENAAALGEYMKARNVLINASPIVRLVTHLDVSREQLAEVAAHWRAFLAR	5.25 ± 0.99 h		4.88 ± 0.86 h	5.53 ± 0.73 h	4.18 ± 0.28 h	3.162 ± 0.023 h	5.88 ± 0.24 h	10.8 ± 0.43 h	4.39 ± 0.4 h	6.44 ± 0.27 h	5.87 ± 0.12 h	11.2 ± 1.5 h
MIDYTAAGFTLLQGAHLYAPEDRGICDVLVANGKIIAVASNIPSDIVPNCTVVDLSGQILCPGFIDQHVHLIGGGGEAGPTTRTPEVALSRLTEAGVTSVVGLLGTDSISRHPESLLAKTRALNEEGISAWMLTGAYHVPSRTITGSVEKDVAIIDRVIGVKCAISDHRSAAPDVYHLANMAAESRVGGLLGGKPGVTVFHMGDSKKALQPIYDLLENCDVPISKLLPTHVNRNVPLFEQALEFARKGGTIDITSSIDEPVAPAEGIARAVQAGIPLARVTLSSDGNGSQPFFDDEGNLTHIGVAGFETLLETVQVLVKDYDFSISDALRPLTSSVAGFLNLTGKGEILPGNDADLLVMTPELRIEQVYARGKLMVKDGKACVKGTFETA	6.21 ± 0.27 h	5.9 ± 0.13 h	5.497 ± 0.0056 h	5.68 ± 0.064 h	5.3 ± 0.21 h	2.93 ± 0.1 h	5.97 ± 0.45 h	12.8 ± 0.66 h	5.29 ± 0.25 h	9.01 ± 0.33 h	6.11 ± 0.39 h	13.1 ± 0.29 h
MIEFVYPHTQLVAGVDEVGRGPLVGAVVTAAVILDPARPIAGLNDSKKLSEKRRLALYEEIKEKALSWSLGRAEPHEIDELNILHATMLAMQRAVAGLHIAPEYVLIDGNRCPKLPMPAMAVVKGDSRVPEISAASILAKVTRDAEMAALDIVFPQYGFAQHKGYPTAFHLEKLAEHGATEHHRRSFGPVKRALGLAS		1.93 h	1.11 h	2.38 ± 0.2 h	1.39 ± 0.024 h	1.7 ± 0.042 h	2.67 ± 0.43 h	3.19 h	1.19 h	1.91 h	1.43 h	2.12 ± 0.71 h
MIEILHEYWKPLLWTDGYRFTGVAITLWLLILSVVIGGVLALFLAIGRVSSNKYIQFPIWLFTYIFRGTPLYVQLLVFYSGMYTLEIVKGTEFLNAFFRSGLNCTVLALTLNTCAYTTEIFAGAIRSVPHGEIEAARAYGFSTFKMYRCIILPSALRIALPAYSNEVILMLHSTALAFTATVPDLLKIARDINAATYQPFTAFGIAAVLYLIISYVLISLFRRAEKRWLQHVKPSSTH [P0AEU3]	> 8 h	6.1106 ± 0.00052 h	6.07 h	6.71 ± 0.91 h	7.16 ± 0.54 h	> 4 h	5.71 ± 0.54 h	11.3 ± 1.3 h	6.75 ± 0.49 h	11 ± 3.6 h	6.32 h	11.92 ± 0.04 h
